Biological target: T1, β catenin (UniProt P35222 2-781)
T1 construct: Detected with antibody Sc7199 (Santa-Cruz)
T1 sequence (looked up): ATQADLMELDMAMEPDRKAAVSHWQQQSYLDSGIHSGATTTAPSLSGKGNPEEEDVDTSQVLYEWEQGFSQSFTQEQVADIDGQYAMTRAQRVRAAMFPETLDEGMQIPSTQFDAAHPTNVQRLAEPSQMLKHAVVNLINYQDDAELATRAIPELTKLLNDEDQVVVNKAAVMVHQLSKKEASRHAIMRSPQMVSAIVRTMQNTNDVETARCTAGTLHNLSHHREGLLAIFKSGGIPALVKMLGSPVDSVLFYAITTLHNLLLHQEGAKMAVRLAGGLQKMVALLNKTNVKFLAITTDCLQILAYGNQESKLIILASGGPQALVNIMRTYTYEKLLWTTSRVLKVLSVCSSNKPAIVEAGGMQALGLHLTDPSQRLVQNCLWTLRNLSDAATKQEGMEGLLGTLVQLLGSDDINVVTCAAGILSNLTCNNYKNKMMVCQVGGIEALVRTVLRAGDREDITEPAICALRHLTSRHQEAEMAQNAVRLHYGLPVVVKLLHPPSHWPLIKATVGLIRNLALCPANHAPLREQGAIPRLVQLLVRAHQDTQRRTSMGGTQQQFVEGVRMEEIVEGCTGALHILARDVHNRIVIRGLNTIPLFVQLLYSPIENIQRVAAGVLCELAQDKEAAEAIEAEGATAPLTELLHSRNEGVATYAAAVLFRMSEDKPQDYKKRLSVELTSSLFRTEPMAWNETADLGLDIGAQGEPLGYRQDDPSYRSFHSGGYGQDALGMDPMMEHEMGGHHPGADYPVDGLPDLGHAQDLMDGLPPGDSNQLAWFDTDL
Experiment: in situ prox-HCR and in situ PLA on DLD1 cells and colon tissue
Procedure: For in situ PLA experiments the DuoLink kit (Olink Bioscience) was used according to manufacturer recommendations. Briefly DLD1 cells were rehydrated and permeabilized as described for prox-HCR. […] Cells were washed with DuoLink Wash buffer A two time for 5 min and incubated with proximity probes (PLUS and MINUS, Olink Bioscience) in antibody diluent (Olink Bioscience) for 1 h at 37° C. After a new round of washing steps ligation mix was applied to the cells and incubated for 30 min at 37° C. Additional washing was followed by RCA and fluorescent detection of the rolling circle products. Cells were counterstained with Hoechst and mounted as described above.
Fresh frozen healthy colon tissue was fixed using 3.7% formaldehyde solution at RT for 15 min. Slides were washed with PBS twice and then blocked using Duolink blocking reagent for 60 min at 37° C. […] The next day the slides were washed with PBS 3×2 min and blocked again for 30 min. The slides were incubated with proximity-probes directed against mouse and rabbit IgG for 1 h at 37° C. in HCR buffer. After two more washes with HCR buffer the slides were incubated with activator oligonucleotides for 30 min at 37° C. Slides were washed again twice with HCR buffer and slides were incubated with 20 nM HCR hairpins in HCR buffer for 1 h at 37° C. […]

B1: E-cadherin (receptor, UniProt P12830 155-882, looked up)
chain: DWVIPPISCPENEKGPFPKNLVQIKSNKDKEGKVFYSITGQGADTPPVGVFIIERETGWLKVTEPLDRERIATYTLFSHAVSSNGNAVEDPMEILITVTDQNDNKPEFTQEVFKGSVMEGALPGTSVMEVTATDADDDVNTYNAAIAYTILSQDPELPDKNMFTINRNTGVISVVTTGLDRESFPTYTLVVQAADLQGEGLSTTATAVITVTDTNDNPPIFNPTTYKGQVPENEANVVITTLKVTDADAPNTPAWEAVYTILNDDGGQFVVTTNPVNNDGILKTAKGLDFEAKQQYILHVAVTNVVPFEVSLTTSTATVTVDVLDVNEAPIFVPPEKRVEVSEDFGVGQEITSYTAQEPDTFMEQKITYRIWRDTANWLEINPDTGAISTRAELDREDFEHVKNSTYTALIIATDNGSPVATGTGTLLLILSDVNDNAPIPEPRTIFFCERNPKPQVINIIDADLPPNTSPFTAELTHGASANWTIQYNDPTQESIILKPKMALEVGDYKINLKLMDNQNKDQVTTLEVSVCDCEGAAGVCRKAQPVEAGLQIPAILGILGGILALLILILLLLLFLRRRAVVKEPLLPPEDDTRDNVYYYDEEGGGEEDQDFDLSQLHRGLDARPEVTRNDVAPTLMSVPRYLPRPANPDEIGNFIDENLKAADTDPTAPPYDSLLVFDYEGSGSEAASLSSLNSSESDKDQDYDYLNEWGNRFKKLADMYGGGEDD
notes: whole, on cells; Detected with antibody 610182 (BD Biosciences)
- binding result: binds
